Experimental data from the Human Domainome abundance scans (Beltran et al. 2025).

B1: Telomeric repeat-binding factor 2, residues 489 to 542; numbered along this chain, Q15554 (parent)
chain: KQKWTVEESEWVKAGVQKYGEGNWAAISKNYPFVNRTAVMIKDRWRTMKRLGMN

Variants of: B1
Experiment: abundance fitness (aPCA) (normalised: wild type 0, dead -1); higher = more abundant; growth selection in yeast, the domain comes from the species named
Conditions: Homo sapiens

Abundance fitness: each site, then its substitutions
R44: W -0.397, Y -0.218, F -0.185, V -0.325, M -0.234, G -0.466, K -0.124, H 0.125, L -0.22, E -0.59, I -0.498, C -0.214, N -0.662, A -0.236, D -1.03, Q -0.079
S28: Q 0.11, V 0.121, T 0.038, K 0.114, W 0.036, H 0.101, A 0.142, N 0.163, G -0.171, P -0.726, D -0.887, I 0.196, M -0.568, Y -0.458, C -0.17, F -0.098
K42: M -0.207, G -0.309, W -0.653, L -0.571, V -0.77, D -0.457, Y -0.448, S -0.16, E -0.016, H -0.881, C -0.124, F -0.544, T -0.614, P -0.961, A -0.141, R 0.035, N -0.417
W45: I -0.65, F -0.747, C -0.81, G -0.982, E -0.571, A -0.691
V34: A -0.16, I -0.066, W -0.366, H 0.032, S -0.172, L -0.057, P -0.49, T 0.193, M 0.208, Q 0.134, E 0.005, C -0.123, F -0.129, D -0.711, G -0.34, Y -0.331, N -0.564, K -0.304
N30: A -0.042, D -0.474, E 0.077, W -0.431, Y -0.284, Q -0.092, K -0.16, F -0.422, M -0.314, L -0.287, P -0.963, T -0.338, C -0.402, S -0.113, R -0.508
M40: E 0.17, N -0.53, R -0.663, T -0.52, H -0.119, L -0.508, Y -0.869, A -0.015, S -0.051, G -0.406, P -0.935, D 0.106, K -0.377, C 0.169, F 0.11, W 0.066
Y31: G -0.499, P -0.389, Q -0.751, T -0.727, F -0.417, M -0.431, V -0.496, C -0.49, R -0.626, K -0.535, H -0.539, E -0.757, S -0.729, D -0.499, N -0.539, W -0.444
V39: G -0.005, I -0.075, P 0.059, L -0.154, M 0.1, C 0.203, Q 0.001, H -0.442, F -0.274, N 0.253, A 0.091, E 0.008, Y -0.015, S 0.057, R 0.032, T 0.135
A25: W -0.146, N 0.015, D 0.472, Q 0.08, H -0.127, M -0.018, P -0.663, R -0.373, K -0.448, L -0.17, G -0.13, F 0.045, I -0.217, E 0.074, C -0.091, Y -0.235
A38: E -0.126, T 0.188, H -0.413, P 0.014, C -0.336, Q -0.15, L -0.372, W 0.013, R -0.575, S -0.204, D -0.276, G -0.371, V -0.123, K -0.297, F -0.334
